Test: soluble on expression in E. coli; label from the status in PepcDB or PDB records

| Sequence | soluble on expression in E. coli |
| --- | --- |
| YHPVFSAKIEQRLIERFGVRRALIALDQPNDEAQRQQVAGLVSNYLTSTLKNGMVVTVGQGRNVSAVAHHVGVITPRDCKFVCSIGGIHPRGGMFNADHICRQLAKKYGGSSETLYAPAYAENPEQKRVFMQNSTVKQTLDLARKADIALVGIGDMSENSYMVDLGWFTPEEVVQSRLNQGVVGDFAGHDFFDVHGRIANTVMNDRVIGLGIDEFRPIAEVIAIAAENSKPLALLGALRTGAIDVIATSVSNALTVLNLDEQMQTALSAS | not soluble |
| MSLNRVSHPLTYENFKTSSAEQESKITKLLENLYKGGKRIVKLRNDPTGVTHAIRLDNDIFKLNVYIKNIDTSKSNLRYTEGYLQSLTNILTRAKEIAIQGASGTYESDDKKMISKEVNALLEDVVAIANAKGPDGYSIFSGTKIDSEAFKVTRENKISKTSKDGAGPQIIKVEYNGNQAEKKTEVYNDIHMSNNYPGNVIFFLQNQNIISSINTNGFAVKENTKIYIDNIEIGLTAGDTALDIVAKINESSAPVEASIDPVLNSLSIKTTTPHQIWITEEKESNVLQTLGILTKNNDTKLPPYNLSSSTEVRSRSIFDALIELRDTLYNNKEELVGSRSLAEIDESLKRLLISVADLGAKENRLDRSYERISKEAADMKEDMIQYTDEGHHHHHH | soluble |
| MSPNHVDHLVLPVAQIDIATARLANLGFTVAPLAVHPFGTANACVFLADGTYLEPLAVNDPAKYGESANRGDVFTGRDRAFRESCGPEGFSALVARSGDAFVDHERFVAAGLSAGDLFEFSRPVQMPDGSRSEAAFRLAFAASGAAADFFLFGCQRLKALPGDRTELERHANAVTGLFEIVLFSGGDAKAARLIETVFGCKSAMSPGGDMVFATGNARIRLTEKPAVADLDLNTSNRGDGGLRGAGIVFSVTDLAVTAAVLAANGVSSMEAGGRLVVPAAPGQGVAFAFEEI | not soluble |
| MSLAGVGGRPPPSVGSVVVADTTMFTDAKLREVLGARSLEEAARIMARILARASRMGLTVYITPSVRAEIERFMLGNGVHPTTIARLMAWVRVKPPTTHELRLPAAMFRRYVETVRARLDKGLRVAEDHVRRALRSRDEEGDIVRSLREKYREYTRKGMLDSVEDVDTLLLALELGAAIVTSDEGLRRAAEDLGLTVLTPVELLEYILALEEEVKSVEEEGHHHHHH | not soluble |
| SMQPIVIHSSGKNYGFTIRAIRVYVGDSDIYTVHHIVWNVEEGSPACQAGLKAGDLITHINGEPVHGLVHTEVIELLLKSGNKVSITTTPFENTETSV | soluble |
| MTNKDIYKNNPLHGTSLETVLTTLVDHYGFEILAAYMNLNCFKQNASIESSLKFLKKTQWAQEKVEAFYMYQYNSLPKADDANFELPPRDRIVPSGLEQRPPKELSLDDAEELRIKQAKKTRERAAAATSANPWGSRLEHHHHHH | not soluble |
| MSKSEKQQLAPWVEKYRPKVLADIVGNENIVERLKVIGHEGNVPNIVLSGPPGCGKTTSVWALARELLGDKVKEAVLELNASDERGIDVVRHRIKTFAQTKVTLPEGRHKIIILDEADSMTDGAQQALRRTMEMYTKTTRFALACNQSEKIIEPIQSRCALLRYTKLSPVQLLTRVKEVAKAEKVNYDDGGLEAILFTAQGDMRQALNNLQATVNAYELVNKENVLKVCDEPHPDLMIKMLHYCTDRKFFEASKIIHEFHRLGFSSDDIVSTLFRVVKTVELSKNVSEQLRMEYIRQIAMCHMRIVQGLTSKLQLSRLIADLCRVSAAATATSA | not soluble |
| MGSDKIHHHHHHMPEEKQKKSVLEKALKRIEENFGKGSIMILGDETQVQPVEVIPTGSLAIDIATGVGGYPRGRIVEIFGQESSGKTTLALHAIAEAQKMGGVAAFIDAEHALDPVYAKNLGVDLKSLLISQPDHGEQALEIVDELVRSGVVDLIVVDSVAALVPRAEIEGAMGDMQVGLQARLMSQALRKIAGSVNKSKAVVIFTNQIRMKIGVMFGSPETTTGGLALKFYATMRMEVRRGEPIKEGKDVIGNVISVKIVKNKVAPPFKTAQTYIIYGKGIDREYELFNIAVNEGIVDRKGSWYYYTTLKGEEVSLGQGSSNAVQFLKDNPEIAGEIERRIREKYGLLSVEKEEQRKEKKSSGEEAS | not soluble |
| MSLADERDQLKSIQADIAAKERAVRQKQQQRASLLAQLKKQEEAISEATRKLRETQNTLNQLNKQIDEMNASIAKLEQQKAAQERSLAAQLDAAFRQGEHTGIQLILSGEESQRGQRLQAYFGYLNQARQETIAQLKQTREEVAMQRAELEEKQSEQQTLLYEQRAQQAKLTQALSERKKTLAGLESSIQQGQQQLSELRANESRLRNSIARAEAAAKARAEREAREAQAVRDRQKEATRKGTTYKPTESEKSLMSRTGGLGAPRGQAFWPVRGPTLHRYGEQLQGELRWKGMVIGASEGTEVKAIADGRVILADWLQGYGLVVVVEHGKGDMSLYGYNQSALVSVGSQVRAGQPIALVGSSGGQGRPSLYFEIRRQGQAVNPQPWLGREGHHHHHH | soluble |
| MGMRLICLNGWGGKLHDKLVPYIASSDPDILCLQEVVHTPAATQDWLSYRDHGVELPQRANFFRDVAEALPDHVAIFCPAAQGDLWQGETRYPSQFGLATFVRKSIAIIAQAQGFVHGVFSADGYGNHPRSRTAHAIRVFDFTTGQPVVIAHMHGLRDLEGKHDIPARLHQAKRLVQFVKNIAEDGDRVIVCGDFNVLPDSRTFAVLNELDLVELVTTRGFTDTRTSHYAKPNRYADYLLVNPAVKVSQFDVVRQPEVSDHCPLLLEFSMAGDPLEHHHHHH | not soluble |
| SFELPALPYAKDALAPHISAETIEYHYGKHHQTYVTNLNNLIKGTAFEGKSLEEIIRSSEGGVFNNAAEVWNHTFYWNCLAPNAGGEPTGKVAEAIAASFGSFADFKAQFTDAAIKNFGSGWTWLVKNSDGKLAIVSTSNAGTPLTTDATPLLTVDVWEHAYYIDYRNARPGYLEHFWALVNWEFVAKNLAA | soluble |
| MSAITAPLPTLDDLATLTLSIKAWGRELGFQEVGISGLDLAEHEQHLQRWLDAGYHGEMDYMAAHGSKRSHPDELVPGTLRVVSLRMDYLPGDTEMAQRLTEPEKAYVSRYALGRDYHKLIRKRLQQLAERIQQAIGPFGFRAFVDSAPVLEKAIAEQAGLGWIGKNTLVLNRKAGSFFFLGELFVDIPLPVDAPHATEHCGRCTACLDICPTAAFVGPYVLDARRCISYLTIELKTAIPEELRPLIGNRVFGCDDCQIVCPWNRFARPTDQSDFQPRHNLDNAGLAELFLWDEEKFLGSTEGSPLRRAGYERWLRNLAVGLGNAPSTIPVIEALQARRDYPSELVREHVEWALQRHGVAPL | not soluble |
| GKQKQYLFEARDITSRKLMEDKLYQRESSLRNYYEQQPVMMVTLDSHNRIQEVNRFAQLLLGYEPIEMLGHRLREFYLDDKALFPRQVLLQPSHQVHDVWRREIEYRHADGHSVWVRENIRPLNDSD | not soluble |
| MTLKLTYFDIHGLAEPIRLLLADKQVAYEDHRVTYEQWADIKPKMIFGQVPCLLSGDEEIVQSGAIIRHLARLNGLNGSNETETTFIDMFYEGLRDLHTKYTTMIYRNYEDGKAPYIKDVLPGELARLEKLFHTYKNGEHYVIGDKESYADYVLFEELDIHLILTPNALDGVPALKKFHERFAERPNIKAYLNKRAAINPPVNGNGKQ | not soluble |
| MGSDKIHHHHHHMNFLVRNLVENLEEGDRVILDVTHSFRSIPLMASVVALYLKEAKDVNVSVVYGKYNKETKVTECEDLTPLTKATSWIYAVRLFKEYGYAKELADLIKKRNEEIYRRSQSSKKPKLLGSMSQKLQDLSSSIRLGSIVAIRKNLTNFFNFIDRNKARIREETEVFVPEIAALLDGIEKRYRVIHVKSENFELSEKELESEKELLDFYLQTGDLGMALRLAREYLINVYLMSGGEKSDFLDRNVRESVSISTFGYDTILQARNHVAHFGFNKLQLPSLKKIEDHLKVLVQTPPEQLLESARKTQRNRKRALLTPLGTTKGALYTVLKKISPDLLLVITSKQGKAILSEILEKAEFKGEFRVILLEDPFMGVSEIDRVVSEIKEHLSDVDEVIVNLTGGTTFLTYVIERAKNQIRYGRKVKTILAVDKRTYEEQKQNPFVVGEILELD | not soluble |

Reference: the DeepSol protein solubility set
